Source: patent US20130266566A1 (AbbVie / Abbott, published 2013)

B1: rabbit PAI-1 (other)
chain: SYPHQPQLTTAGETQQQIQAAMRFKIDEQSTAPALRHLHKELMGPWNKDEISTTDAIFVQRDLKLVQGFMPHFFRLFRTTVKQVDFSDVQRARFIINDWVERHTKGMISDLLGEGAMDQLTRLLLVNALYFNGQWKTPFSKSGTHHRLFHKSDGSTISVPMMAQTNKFNYTEFLTPDGHYYDILELPYHGETLSMFIAAPYEKQVPLSALTNILSAQLISQWKGNMTRVTRLLVLPKFSLESEVDLRAPLENLGMTDMFRPGQADFSNLSDQELLHVSRALQKVKIEVNESGTMASSSTVILVSARMAPEEIIMDRPFLFVVRHNPTGTILFLGQVMEL
B9: Antibody 16 IgG1, not germlined (antibody, V domains shown)
VH: QVQLVQSGAEVKKPGSSVKVSCKASGGTFSSYAISWVRQAPGQGLEWMGGIIPTFGTANYAQKFQGRVTITADESTSTAYMELSSLRSEDTAVYYCAREKRQWLEGHFDYWGRGTLVTVSS
VL: DIQMTQSPSTLSASVGDRVTITCRASESIYHSLAWYQQKPGKAPKLLIYKASSLASGVPSRFSGSRSGTEFTLTISSLQPDDFATYYCQQYSNYPLTFGGGTKVEIK
notes: IgG1; also called Ab 16

What was measured:
[1] = target: B9; assay: competition binding assay: Antibody 16 IgG adsorbed to the plate, biotinylated active human PAI-1 plus a titration of the unlabelled competitor, streptavidin-Europium detection
[2] = target: T1, active human PAI-1, recombinant, wild-type, non-glycosylated (E. coli) (human, UniProt P05121 24-402); assay: cell-based or functional assay
cynomolgus PAI-1 [3] = target: T2, cynomolgus PAI-1 (cynomolgus, UniProt P05121 24-402 (human entry), limits assumed); assay: cell-based or functional assay
rat PAI-1 [4] = target: T3, rat PAI-1 (rat, UniProt P20961 24-402); assay: cell-based or functional assay
T3 sequence: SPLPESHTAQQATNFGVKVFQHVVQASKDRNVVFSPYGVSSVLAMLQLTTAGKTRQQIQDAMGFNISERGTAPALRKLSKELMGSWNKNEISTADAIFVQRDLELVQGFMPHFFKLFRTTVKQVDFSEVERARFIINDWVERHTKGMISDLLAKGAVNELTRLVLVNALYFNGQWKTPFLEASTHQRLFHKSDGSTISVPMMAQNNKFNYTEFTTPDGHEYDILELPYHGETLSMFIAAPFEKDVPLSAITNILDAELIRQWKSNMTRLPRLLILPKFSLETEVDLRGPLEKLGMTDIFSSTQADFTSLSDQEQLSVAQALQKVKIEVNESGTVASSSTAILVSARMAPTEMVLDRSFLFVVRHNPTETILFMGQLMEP

mouse PAI-1 [5] = target: T4, mouse PAI-1 (mouse, UniProt P22777 24-401); assay: cell-based or functional assay
T4 sequence: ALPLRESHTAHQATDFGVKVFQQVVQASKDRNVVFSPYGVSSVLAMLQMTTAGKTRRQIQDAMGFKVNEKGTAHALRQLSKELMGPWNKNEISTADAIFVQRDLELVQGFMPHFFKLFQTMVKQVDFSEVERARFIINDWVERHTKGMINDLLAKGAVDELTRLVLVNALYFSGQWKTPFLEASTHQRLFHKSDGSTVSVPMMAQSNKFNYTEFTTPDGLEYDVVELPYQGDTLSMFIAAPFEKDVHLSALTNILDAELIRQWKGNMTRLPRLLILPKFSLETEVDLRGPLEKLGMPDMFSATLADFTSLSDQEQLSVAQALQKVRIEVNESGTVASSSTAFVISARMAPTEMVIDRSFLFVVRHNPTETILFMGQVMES

[6] = target: T1, active human PAI-1, recombinant, …; assay: cell-based or functional assay; remark: listed apart in the source
rat PAI-1 [7] = target: T3, rat PAI-1; assay: cell-based or functional assay; remark: listed apart in the source
mouse PAI-1 [8] = target: T4, mouse PAI-1; assay: cell-based or functional assay; remark: listed apart in the source
cynomolgus PAI-1 [9] = target: T2, cynomolgus PAI-1; assay: cell-based or functional assay; remark: listed apart in the source
mouse PAI-1 [10] = target: T4, mouse PAI-1; assay: cell-based or functional assay; remark: listed apart in the source
[11] = target: T1, active human PAI-1, recombinant, …; assay: cell-based or functional assay; remark: listed apart in the source
rabbit PAI-1 = target: B1; assay: competition ELISA, IgG on plate, biotinylated active human PAI-1 against titrated unlabelled competitor
latent human PAI-1 = target: T5, latent human PAI-1 (human, UniProt P05121 24-402); assay: as above
T5 construct: also called latent PAI-1

rat PAI-1 [12] = target: T3, rat PAI-1; assay: as above
mouse PAI-1 [13] = target: T4, mouse PAI-1; assay: as above
rat PAI-1 [14] = target: T3, rat PAI-1; assay: cell-based or functional assay; remark: listed apart in the source

Binder: B1
- IC50 (read off the curve) [1]: ~3 nM

B2: Antibody 16 scFv (scFv)
chain: QVQLVQSGAEVKKPGSSVKVSCKASGGTFSSYAISWVRQAPGQGLEWMGGIIPTFGTANYAQKFQGRVTITADESTSTAYMELSSLRSEDTAVYYCAREKRQWLEGHFDYWGRGTLVTVSSDIQMTQSPSTLSASVGDRVTITCRASESIYHSLAWYQQKPGKAPKLLIYKASSLASGVPSRFSGSRSGTEFTLTISSLQPDDFATYYCQQYSNYPLTFGGGTKVEIK
- IC50, human chromogenic assay (FIG. 2a) [2]: 3.6 nM
- IC50, cyno chromogenic assay (FIG. 2b) (cynomolgus PAI-1 [3]): 0.8 nM
- Chromogenic (IC50 in nM) rat (rat PAI-1 [4]): 5.6 nM
- Chromogenic (IC50 in nM) mouse (mouse PAI-1 [5]): 4.3 nM
- HT-1080 Exo PAI-1 (IC50 in nM) human [6]: 16.9 nM
- HT-1080 Exo PAI-1 (IC50 in nM) rat (rat PAI-1 [7]): 52.6 nM
- HT-1080 Exo PAI-1 (IC50 in nM) mouse (mouse PAI-1 [8]): 17.6 nM

B3: Antibody 20 scFv (scFv)
chain: QVQLQQSGAEVKKPGSSVKVSCKASGGTFSSYAISWVRQAPGQGLEWMGGIIPTFGTANYAQKFQGRVTITADESTSTAYMELSSLRSEDTAVYYCAREKRQWLEGHFDYWGRGTLVTVSSDIQMTQSPSTLSASVGDRVTITCRASEGIYHELAWYQQKPGKAPKLLIYRASSLASGVPSRFSGSRSGTEFTLTISSLQPDDFATYYCQQYSDYPLTFGGGTKVEIK
- Chromogenic (IC50 in nM) cyno (cynomolgus PAI-1 [9]): 1.3 nM
- Chromogenic (IC50 in nM) mouse (mouse PAI-1 [5]): 4.9 nM
- HT-1080 Exo PAI-1 (IC50 in nM) human [6]: 19.1 nM
- HT-1080 Exo PAI-1 (IC50 in nM) rat (rat PAI-1 [7]): 42.4 nM
- HT-1080 Exo PAI-1 (IC50 in nM) mouse (mouse PAI-1 [8]): 18.1 nM

B4: Antibody 08 scFv (scFv)
chain: QVQLVQSGAEVKKPGSSVKVSCKASGGTFSSYAISWVRQAPGQGLEWMGGIIPTFGTANYAQKFQGRVTITADESTSTAYMELSSLRSEDTAVYYCARERRQWLEGHFDYWGRGTLVTVSSDIQMTQSPSTLSASVGDRVTITCRASEGIYHNLAWYQQKPGKAPKLLIYKASSLASGVPSRFSGSRSGTEFTLTISSLQPDDFATYYCQQYSNYPLTFGGGTKVEIK
- IC50, cyno chromogenic assay (FIG. 2b) (cynomolgus PAI-1 [3]): 0.8 nM
- IC50, mouse chromogenic assay (FIG. 2d) (mouse PAI-1 [10]): 2.6 nM
- Chromogenic (IC50 in nM) cyno (cynomolgus PAI-1 [9]): 1 nM
- Chromogenic IC50 ratio cyno/human (cynomolgus PAI-1 [9]): 0.3 fold
- HT-1080 Exo PAI-1 (IC50 in nM) mouse (mouse PAI-1 [8]): 26.2 nM

B5: Antibody 15 scFv (scFv)
chain: QVQLQQSGAEVKKPGSSVKVSCKASGGTFSSYAISWVRQAPGQGLEWMGGIIPTFGTANYAQKFQGRVTITADESTSTAYMELSGLRSEDTAVYYCAREKRQWLEGHFDYWGRGTPVTVSSDIQMAQSPSFLSASIGDRVTITCRASEGIYHNLAWYQQKPGKAPKLLIYRASSLASGAPSRFSGSGSGTDFTLTISSLQPDDFATYYCQQYSNYPLTFGGGTKLEIR
- Chromogenic (IC50 in nM) human [11]: 7.2 nM
- Chromogenic (IC50 in nM) cyno (cynomolgus PAI-1 [9]): 2.2 nM
- Chromogenic IC50 ratio cyno/human (cynomolgus PAI-1 [9]): 0.3 fold
- Chromogenic (IC50 in nM) rat (rat PAI-1 [4]): 64.2 nM
- Chromogenic IC50 ratio rat/human (rat PAI-1 [4]): 8.9 fold
- Chromogenic (IC50 in nM) mouse (mouse PAI-1 [5]): 66.9 nM
- Chromogenic IC50 ratio mouse/human (mouse PAI-1 [5]): 9.3 fold
- HT-1080 Exo PAI-1 (IC50 in nM) human [6]: 36 nM
- HT-1080 Exo PAI-1 (IC50 in nM) rat (rat PAI-1 [7]): 57 nM
- HT-1080 Exo PAI-1 (IC50 in nM) mouse (mouse PAI-1 [8]): 37 nM

B6: Antibody 20 IgG1, not germlined (antibody, V domains shown)
VH: QVQLQQSGAEVKKPGSSVKVSCKASGGTFSSYAISWVRQAPGQGLEWMGGIIPTFGTANYAQKFQGRVTITADESTSTAYMELSSLRSEDTAVYYCAREKRQWLEGHFDYWGRGTLVTVSS
VL: DIQMTQSPSTLSASVGDRVTITCRASEGIYHELAWYQQKPGKAPKLLIYRASSLASGVPSRFSGSRSGTEFTLTISSLQPDDFATYYCQQYSDYPLTFGGGTKVEIK
notes: IgG1; also called Ab 20
- Chromogenic IC50 ratio cyno/human (cynomolgus PAI-1 [9]): 0.5 fold
- Chromogenic IC50 ratio rat/human (rat PAI-1 [4]): 1.8 fold
- Chromogenic IC50 ratio mouse/human (mouse PAI-1 [5]): 0.9 fold
- IC50 ratio rabbit/wt (rabbit PAI-1): 9.1 fold
- IC50 ratio latent/wt (latent human PAI-1): 7.5 fold
- IC50 ratio rat/wt (rat PAI-1 [12]): 2.3 fold
- IC50 ratio mouse/wt (mouse PAI-1 [13]): 7.6 fold

B7: Antibody 01 IgG4, not germlined (antibody, V domains shown)
VH: QVQLVQSGAEVKKPGSSVKVSCKASGGTFSSYAISWVRQAPGQGLEWMGGIIPIFGTANYAQKFQGRVTITADESTSTAYMELSSLRSEDTAVYYCAREKRQWLEGHFDYWGRGTLVTVSS
VL: DIQMTQSPSTLSASVGDRVTITCRASEGIYRSLAWYQQKPGKAPKLLIYKASSLASGVPSRFSGSGSGTEFTLTISSLQPDDFATYYCQQYSNYPLTFGGGTKVEIK
notes: IgG4; also called Ab 01
- IC50 ratio rabbit/wt (rabbit PAI-1): 9 fold

B8: Antibody 02 IgG4, not germlined (antibody, V domains shown)
VH: QVQLVQSGAEVKKPGSSVKVSCKASGGTFSSYAISWVRQAPGQGLEWMGGIIPTFGTANYAQKFQGRVTITADESTSTAYMELSSLRSEDTAVYYCAREKRQWLEGHFDYWGRGTLVTVSS
VL: DIQMTQSPSTLSASVGDRVTITCRASEGIYHSLAWYQQKPGKAPKLLIYKASSLASGVPSRFSGSGSGTEFTLTISSLQPDDFATYYCQQYSDYPLTFGGGTKVEIK
notes: IgG4; also called Ab 02
- IC50 ratio rabbit/wt (rabbit PAI-1): 4.8 fold

Binder: B9
- IC50 ratio rabbit/wt (rabbit PAI-1): 7.9 fold

B10: Antibody 27 IgG1, not germlined (antibody, V domains shown)
VH: QVQLQQSGAEVKKPGSSVKVSCKASGGAFSSYAISWVRQAPGQGLEWMGGIIPTFGTANYAQKFQGRVTITADESTSTAYMELSGLRSEDTAVYYCAREKRQWLEGHFDYWGRGTPVTVSS
VL: DIQMTQSPSFLSASIGDRVTITCRASEGIYHNLAWYQQKPGKAPKLLIYRASSLASGAPSRFSGSGSGTDFTLTISSLQPDDFATYYCQQYSNYPLTFGGGTKLEIK
notes: IgG1; also called Ab 27
- Chromogenic IC50 ratio rat/human (rat PAI-1 [4]): 5.4 fold
- Chromogenic IC50 ratio mouse/human (mouse PAI-1 [5]): 3.3 fold
- IC50 ratio rabbit/wt (rabbit PAI-1): 85 fold
- IC50 ratio latent/wt (latent human PAI-1): 6.8 fold
- IC50 ratio rat/wt (rat PAI-1 [12]): 1.2 fold
- IC50 ratio mouse/wt (mouse PAI-1 [13]): 6.1 fold

B11: PICK167_A01-fgl IgG1 (antibody, V domains shown)
VH: QVQLVQSGAEVKKPGSSVKVSCKASGGTFSSYAISWVRQAPGQGLEWMGGIIPTFGTANYAQKFQGRVTITADESTSTAYMELSSLRSEDTAVYYCARERRQWLEGHFDYWGRGTLVTVSS
VL: DIQMTQSPSTLSASVGDRVTITCRASEGIYHNLAWYQQKPGKAPKLLIYKASSLASGVPSRFSGSRSGTEFTLTISSLQPDDFATYYCQQYSNYPLTFGGGTKVEIKR
- pIC50, HT1080 plasminogen activation assay [2]: 7.87 pIC50
- pIC50, HT1080 plasminogen activation assay (rat PAI-1 [14]): 7.64 pIC50
